Laboratory results published in the RNAGym collection of RNA variant scans (doi:10.7554/elife.80360).

B1: Twister Ribozyme (parent)
chain: AACACUGCCAAUGCCGGUCCCAAGCCCGGAUAAAAGUGGAGGGGGCGG

Variants of: B1
Test: self-cleavage, relative activity (ratio to wild type); higher = more cleavage; co-transcriptional

Going from AACCCUGCCAAUGCCGGUCCCAAGCCCGGAUAAAAGUGGAAGGGGCGG [A4C G41A] to AACCCUGCCAAUGCCGGUCCCAAGCCCGGAUAAAAGUGGAGAGGGCGG [A4C G42A], the self-cleavage rises from 0.0502 to 0.0686.

Going from AACCCUGCCAAUGCCGGUCCCAAGCCCGGAUAAAAGUGGAGGCGGCGG [A4C G43C] to AACCCUGCCAAUGCCGGUCCCAAGCCCGGAUAAAAGUGGAGGGAGCGG [A4C G44A], the self-cleavage rises from 0.0981 to 0.165.

Going from AACCCUGCCAAUGCCGGUCCCAAGCCCGGAUAAAAGUGGAGGGGGCUG [A4C G47U] to AACCCUGCCAAUGCCGGUCCCAAGCCCGGAUAAAAGUGGAGGGGGCGA [A4C G48A], the self-cleavage rises from 0.121 to 0.134.

First: AACCCUGCCAAUGCCGGUCCCAAGCCCGGAUAAAAGUGGAGGGGGCGC [A4C G48C]
Second: AACCCCGCCAAUGCCGGUCCCAAGCCCGGAUAAAAGUGGAGGGGGCGG [A4C U6C]
The self-cleavage of the first is higher: 0.31 for the first, 0.0627 for the second.

First: AACCCGGCCAAUGCCGGUCCCAAGCCCGGAUAAAAGUGGAGGGGGCGG [A4C U6G]
Second: AACCCUGCCAACGCCGGUCCCAAGCCCGGAUAAAAGUGGAGGGGGCGG [A4C U12C]
The self-cleavage of the first is lower: 0.0323 for the first, 0.228 for the second.

First: AACCCUGCCAAUGCCGGACCCAAGCCCGGAUAAAAGUGGAGGGGGCGG [A4C U18A]
Second: AACCCUGCCAAUGCCGGCCCCAAGCCCGGAUAAAAGUGGAGGGGGCGG [A4C U18C]
The self-cleavage of the first is lower: 0.0406 for the first, 0.0605 for the second.

Going from AACCCUGCCAAUGCCGGGCCCAAGCCCGGAUAAAAGUGGAGGGGGCGG [A4C U18G] to AACCCUGCCAAUGCCGGUCCCAAGCCCGGAAAAAAGUGGAGGGGGCGG [A4C U31A], the self-cleavage rises from 0.111 to 0.182.

First: AACCCUGCCAAUGCCGGUCCCAAGCCCGGAGAAAAGUGGAGGGGGCGG [A4C U31G]
Second: AACGCUGCCUAUGCCGGUCCCAAGCCCGGAUAAAAGUGGAGGGGGCGG [A4G A10U]
The self-cleavage of the first is lower: 0.177 for the first, 1.04 for the second.

First: AACGCUGCCACUGCCGGUCCCAAGCCCGGAUAAAAGUGGAGGGGGCGG [A4G A11C]
Second: AACGCUGCCAUUGCCGGUCCCAAGCCCGGAUAAAAGUGGAGGGGGCGG [A4G A11U]
The self-cleavage of the first is lower: 0.663 for the first, 0.996 for the second.

Compared with AACGCUGCCAAUGCCGGUCCCACGCCCGGAUAAAAGUGGAGGGGGCGG [A4G A23C], AACGCUGCCAAUGCCGGUCCCAUGCCCGGAUAAAAGUGGAGGGGGCGG [A4G A23U] is higher in self-cleavage: 0.0625 for the first, 0.358 for the second.

First: AACGCUGCCAAUGCCGGUCCCAAGCCCGGCUAAAAGUGGAGGGGGCGG [A4G A30C]
Second: AACGCUGCCAAUGCCGGUCCCAAGCCCGGUUAAAAGUGGAGGGGGCGG [A4G A30U]
The self-cleavage of the first is lower: 0.736 for the first, 0.762 for the second.

Compared with AACGCUGCCAAUGCCGGUCCCAAGCCCGGAUGAAAGUGGAGGGGGCGG [A4G A32G], AACGCUGCCAAUGCCGGUCCCAAGCCCGGAUAUAAGUGGAGGGGGCGG [A4G A33U] is lower in self-cleavage: 1.05 for the first, 0.858 for the second.

Compared with AACGCUGCCAAUGCCGGUCCCAAGCCCGGAUAACAGUGGAGGGGGCGG [A4G A34C], AACGCUGCCAAUGCCGGUCCCAAGCCCGGAUAAUAGUGGAGGGGGCGG [A4G A34U] is higher in self-cleavage: 0.128 for the first, 0.499 for the second.

Compared with AACGCUGCCAAUGCCGGUCCCAAGCCCGGAUAAAAGUGGCGGGGGCGG [A4G A40C], AACGCUGACAAUGCCGGUCCCAAGCCCGGAUAAAAGUGGAGGGGGCGG [A4G C8A] is higher in self-cleavage: 0.0709 for the first, 0.524 for the second.

First: AACGCUGUCAAUGCCGGUCCCAAGCCCGGAUAAAAGUGGAGGGGGCGG [A4G C8U]
Second: AACGCUGCAAAUGCCGGUCCCAAGCCCGGAUAAAAGUGGAGGGGGCGG [A4G C9A]
The self-cleavage of the first is higher: 0.953 for the first, 0.698 for the second.

First: AACGCUGCCAAUGCGGGUCCCAAGCCCGGAUAAAAGUGGAGGGGGCGG [A4G C15G]
Second: AACGCUGCCAAUGCUGGUCCCAAGCCCGGAUAAAAGUGGAGGGGGCGG [A4G C15U]
The self-cleavage of the first is lower: 0.0751 for the first, 0.944 for the second.

First: AACGCUGCCAAUGCCGGUCGCAAGCCCGGAUAAAAGUGGAGGGGGCGG [A4G C20G]
Second: AACGCUGCCAAUGCCGGUCCUAAGCCCGGAUAAAAGUGGAGGGGGCGG [A4G C21U]
The self-cleavage of the first is higher: 0.128 for the first, 0.118 for the second.

Compared with AACGCUGCCAAUGCCGGUCCCAAGUCCGGAUAAAAGUGGAGGGGGCGG [A4G C25U], AACGCUGCCAAUGCCGGUCCCAAGCACGGAUAAAAGUGGAGGGGGCGG [A4G C26A] is lower in self-cleavage: 0.595 for the first, 0.293 for the second.

First: AACGCUGCCAAUGCCGGUCCCAAGCGCGGAUAAAAGUGGAGGGGGCGG [A4G C26G]
Second: AACGCUGCCAAUGCCGGUCCCAAGCUCGGAUAAAAGUGGAGGGGGCGG [A4G C26U]
The self-cleavage of the first is lower: 0.169 for the first, 0.252 for the second.

Compared with AACGCUGCCAAUGCCGGUCCCAAGCCGGGAUAAAAGUGGAGGGGGCGG [A4G C27G], AACGCUGCCAAUGCCGGUCCCAAGCCCGGAUAAAAGUGGAGGGGGGGG [A4G C46G] is higher in self-cleavage: 0.0421 for the first, 1.15 for the second.

Compared with AACGCUGCCAAUGCCGGUCCCAAGCCCGGAUAAAAGUGGAGGGGGUGG [A4G C46U], AACGCUACCAAUGCCGGUCCCAAGCCCGGAUAAAAGUGGAGGGGGCGG [A4G G7A] is lower in self-cleavage: 0.775 for the first, 0.169 for the second.

Going from AACGCUCCCAAUGCCGGUCCCAAGCCCGGAUAAAAGUGGAGGGGGCGG [A4G G7C] to AACGCUGCCAAUCCCGGUCCCAAGCCCGGAUAAAAGUGGAGGGGGCGG [A4G G13C], the self-cleavage rises from 0.0363 to 0.244.

First: AACGCUGCCAAUUCCGGUCCCAAGCCCGGAUAAAAGUGGAGGGGGCGG [A4G G13U]
Second: AACGCUGCCAAUGCCGCUCCCAAGCCCGGAUAAAAGUGGAGGGGGCGG [A4G G17C]
The self-cleavage of the first is higher: 0.327 for the first, 0.0548 for the second.

First: AACGCUGCCAAUGCCGGUCCCAAACCCGGAUAAAAGUGGAGGGGGCGG [A4G G24A]
Second: AACGCUGCCAAUGCCGGUCCCAACCCCGGAUAAAAGUGGAGGGGGCGG [A4G G24C]
The self-cleavage of the first is higher: 0.0846 for the first, 0.0502 for the second.

Going from AACGCUGCCAAUGCCGGUCCCAAGCCCCGAUAAAAGUGGAGGGGGCGG [A4G G28C] to AACGCUGCCAAUGCCGGUCCCAAGCCCGCAUAAAAGUGGAGGGGGCGG [A4G G29C], the self-cleavage rises from 0.529 to 0.571.

First: AACGCUGCCAAUGCCGGUCCCAAGCCCGUAUAAAAGUGGAGGGGGCGG [A4G G29U]
Second: AACGCUGCCAAUGCCGGUCCCAAGCCCGGAUAAAAAUGGAGGGGGCGG [A4G G36A]
The self-cleavage of the first is higher: 0.851 for the first, 0.385 for the second.

Going from AACGCUGCCAAUGCCGGUCCCAAGCCCGGAUAAAAGUCGAGGGGGCGG [A4G G38C] to AACGCUGCCAAUGCCGGUCCCAAGCCCGGAUAAAAGUUGAGGGGGCGG [A4G G38U], the self-cleavage rises from 0.918 to 0.947.
